Key:
AKIII [1] = experiment: Heat stability of AKIII in vitro; type: biochemical, E. coli; details: ratio of activity maintenance after treatment at 55° C. for 1.5 hour
From the text: (§1) On the contrary, although the mutant AKIII's obtained this time had various degrees of desensitization, inhibition by L-lysine was desensitized in all of 14 species. […] The specific activity based on total protein, which might be affected by growth situations of cell and preparation of samples, was equal to or more than that of the wild type in almost all cases, and there was little problem of decrease in activity due to the introduction of mutation (Table 3). According to this fact, it was expected that an active center of AKIII was independent from a regulatory site by L-lysine with each other. In Table 3, the inhibition desensitization degree (%) refers to an AK activity in the presence of 100 mM of L-lysine compared with an AK activity in the absence of L-lysine in the reaction solution. The heat stability (%) refers to a ratio of activity maintenance after a treatment at 55° C. for 1.5 hour.
Subsequently, the heat stability of the mutant enzymes was examined. When it is intended that an enzyme is improved to increase its activity, it is important that a created enzyme is maintained stably in cells. […]
Judging from results of investigation on the inactivation temperature of AKIII under various conditions, the ratio of activity maintenance after a treatment at 55° C. for 90 minutes was measured. […]

AKIII [2] = experiment: Enzyme activity of AKIII and inhibition by L-lysine (cell-free extract); type: biochemical, E. coli
From the text: No. 24, No. 43, No. 48, No. 60, No. 80, No. 117, No. 126, No. 149, No. 150, No. 156, No. 158, No. 167, No. 169 and No. 172 were selected as representative strains of the aforementioned 14 groups. Mutant plasmids derived from pLYSC1 were recovered from each of them, and designated as pLYSC1*24, pLYSC1*43, pLYSC1*48, pLYSC1*60, pLYSC1*80, pLYSC1*117, pLYSC1*126, pLYSC1*149, pLYSC1*150, pLYSC1*156, pLYSC1*158, pLYSC1*167, pLYSC1*169 and pLYSC1*172, respectively. An AK completely deficient strain GT3 was transformed with them and the wild type pLYSC1. A cell-free extract was prepared from each of transformed strains, and the enzyme activity of AKIII was measured.
The cell-free extract (crude enzyme solution) was prepared as follows. A transformed strain was cultivated in a 2 x TY medium, and collected at an OD660 of about 0.8. Cells were washed with 0.02 M KH2 PO4 (pH 6.75)-0.03 M β-mercaptoethanol under a condition of 0° C., and the cells were disrupted by sonication (0° C., 100 W, 30 minutes×4). A disrupted cell solution was centrifuged at 33 krpm for 1 hour under a condition of 0° C. to obtain a supernatant to which ammonium sulfate was added to give 80% saturation. After centrifugation, a pellet was dissolved in 0.02 M KH2 PO4 (pH 6.75)-0.03 M β-mercaptoethanol, and stored at 0° C. overnight.
The enzyme activity of AKIII was measured in accordance with a method of Stadtman et al. (Stadtman, E. R., Cohen, G. N., LeBras, G., and Robichon-Szulmajster, H., J. Biol. Chem., 236, 2033 (1961)). Namely, a reaction solution having the following composition was incubated at 27° C. for 45 minutes, and an FeCl3 solution (2.8 N HCl 0.4 ml+12% TCA 0.4 ml+5% FeCl3 ·6H2 O/0.1 N HCl 0.7 ml) was added thereto to develop a color, and it was centrifuged followed by measurement of absorbance of a supernatant at 540 nm. The activity was indicated by an amount of hydroxamic acid generated per minute (1 U=1 μmol/min). The molar absorption coefficient was 600. Potassium aspartate was removed from the reaction solution to be used as a blank.
In measurement of the enzyme activity of AK, various concentrations of L-lysine were added to the enzyme reaction solution and the degree of inhibition by L-lysine was examined.
as §1

B1: Wild type: wild type aspartokinase III of E. coli encoded by lysC, SEQ ID NO:8 (protein)
chain: MSEIVVSKFGGTSVADFDAMNRSADIVLSDANVRLVVLSASAGITNLLVALAEGLEPGERFEKLDAIRNIQFAILERLRYPNVIREEIERLLENITVLAEAAALATSPALTDELVSHGELMSTLLFVEILRERDVQAQWFDVRKVMRTNDRFGRAEPDIAALAELAALQLLPRLNEGLVITQGFIGSENKGRTTTLGRGGSDYTAALLAEALHASRVDIWTDVPGIYTTDPRVVSAAKRIDEIAFAEAAEMATFGAKVLHPATLLPAVRSDIPVFVGSSKDPRAGGTLVCNKTENPPLFRALALRRNQTLLTLHSLNMLHSRGFLAEVFGILARHNISVDLITTSEVSVALTLDTTGSTSTGDTLLTQSLLMELSALCRVEVEEGLALVALIGNDLSKACGVGKEVFGVLEPFNIRMICYGASSHNLCFLVPGEDAEQVVQKLHSNLFE
B1 was tested, and the Heat stability (AKIII [1]) was 18%, the “Degree of desensitization of inhibition” value (AKIII [2]; AK activity in the presence of 100 mM of L-lysine compared with AK activity in the absence of L-lysine) was 0% and the Specific activity (AKIII [2]; AKIII, cell-free extract of GT3 transformants, 1 U=1 μmol/min) was 0.0247 U/mg protein. For the same molecule, the “Inhibition of AKIII by L-lysine” value (AKIII [2]; various concentrations of L-lysine, FIG. 6) was “strongly suffered inhibition by L-lysine”.

— patent publication US5989875A, “Method of process for producing L-lysine by fermentation” (priority 1995, dated 1999)
